Test results as given in patent US20230406951A1 (Pfizer, published 2023).
Positions count from the first letter of the chain named.

T1: human TNFR2 (human, UniProt P20333 23-461)
T1 construct: expressed on the surface of CHO cells; also called HuTNFR2; TNFRSF1B
T1 sequence: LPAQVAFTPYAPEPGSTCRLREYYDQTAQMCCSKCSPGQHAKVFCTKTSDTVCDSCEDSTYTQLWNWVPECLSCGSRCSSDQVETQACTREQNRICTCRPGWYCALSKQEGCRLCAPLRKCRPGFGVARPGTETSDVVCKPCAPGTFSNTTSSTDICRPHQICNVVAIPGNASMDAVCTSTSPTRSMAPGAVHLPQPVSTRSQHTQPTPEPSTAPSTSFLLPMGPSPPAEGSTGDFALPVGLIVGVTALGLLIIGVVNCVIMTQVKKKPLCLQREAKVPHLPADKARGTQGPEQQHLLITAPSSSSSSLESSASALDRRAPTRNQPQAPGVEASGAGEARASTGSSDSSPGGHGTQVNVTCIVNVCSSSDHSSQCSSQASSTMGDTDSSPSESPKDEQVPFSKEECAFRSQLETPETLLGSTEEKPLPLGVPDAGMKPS

B1: IgG 1948 (antibody, name in Kabat numbering, V domains shown)
VH: QVQLVQSGAEVKKPGASVKVSCKVSGFSFPSSGVDWVRQAPGQGLEWLGVTHGSGSTHYNQKFQGRVTITKDTSKSTVYMELSSLRSEDTAVYYCASGEWDEGFVYWGQGTLVTVSS
VL: DIQLTQSPSFLSASVGDRVTITCKASQNVGTAVAWYQQKPGKAPKLLIYAASTLQSGVPSRFSGSGSGTEFTLTISSLQPEDFATYYCLQYSSYPLTFGGGTKVEIKR
notes: IgG
B2: IgG 2030 (antibody, name in Kabat numbering, V domains shown)
VH: B1 VH with W100H
VL: B1 VL with Y91K
notes: IgG
B3: IgG 1966 (antibody, name in Kabat numbering, V domains shown)
VH: B1 VH with H52L, S54H, W100H
VL: B1 VL with L89Q
notes: IgG
B4: IgG 1950 (antibody, name in Kabat numbering, V domains shown)
VH: B1 VH with H52W, S54V, W100H
VL: B1 VL
notes: IgG
B5: IgG 2039 (antibody, name in Kabat numbering, V domains shown)
VH: B1 VH with H52R, S54E, W100R
VL: B1 VL
notes: IgG
B6: IgG 1972 (antibody, name in Kabat numbering, V domains shown)
VH: B1 VH with W100Q
VL: B1 VL with L89Q
notes: IgG
B7: IgG 2016 (antibody, name in Kabat numbering, V domains shown)
VH: B1 VH with H52K, S54Q, W100Q
VL: B1 VL with Y91K
notes: IgG
B8: IgG 1955 (antibody, name in Kabat numbering, V domains shown)
VH: B1 VH with H52K, S54Q, W100R
VL: B1 VL with L89Q
notes: IgG
B9: IgG 2034 (antibody, name in Kabat numbering, V domains shown)
VH: B1 VH with H52K, S54Q, W100H
VL: B1 VL
notes: IgG
B10: IgG 2025 (antibody, name in Kabat numbering, V domains shown)
VH: B1 VH with H52L, S54H, W100S, D101T
VL: B1 VL with Y91K
notes: IgG
B11: IgG 1963 (antibody, name in Kabat numbering, V domains shown)
VH: B1 VH with H52F, G53Q, S54E, W100R
VL: B1 VL with L89Q
notes: IgG
B12: IgG 2022 (antibody, name in Kabat numbering, V domains shown)
VH: B1 VH with H52F, G53Q, S54E, W100H
VL: B1 VL with Y91K
notes: IgG
B13: IgG 1951 (antibody, name in Kabat numbering, V domains shown)
VH: B1 VH with H52W, S54V, W100R
VL: B1 VL
notes: IgG
B14: IgG 2019 (antibody, name in Kabat numbering, V domains shown)
VH: B1 VH with H52R, S54E, W100R
VL: B1 VL with Y91K
notes: IgG
B15: IgG 1949 (antibody, name in Kabat numbering, V domains shown)
VH: B1 VH with H52W, S54V, W100S, D101T
VL: B1 VL
notes: IgG
B16: IgG 2031 (antibody, name in Kabat numbering, V domains shown)
VH: B1 VH with W100R
VL: B1 VL with Y91K
notes: IgG
B17: IgG 1967 (antibody, name in Kabat numbering, V domains shown)
VH: B1 VH with H52L, S54H, W100R
VL: B1 VL with L89Q
notes: IgG
B18: IgG 1952 (antibody, name in Kabat numbering, V domains shown)
VH: B1 VH with H52W, S54V, W100Q
VL: B1 VL
notes: IgG
B19: IgG 1954 (antibody, name in Kabat numbering, V domains shown)
VH: B1 VH with H52K, S54Q, W100H
VL: B1 VL with L89Q
notes: IgG
B20: IgG 2026 (antibody, name in Kabat numbering, V domains shown)
VH: B1 VH with H52L, S54H, W100H
VL: B1 VL with Y91K
notes: IgG
B21: IgG 1971 (antibody, name in Kabat numbering, V domains shown)
VH: B1 VH with W100R
VL: B1 VL with L89Q
notes: IgG
B22: IgG 1956 (antibody, name in Kabat numbering, V domains shown)
VH: B1 VH with H52K, S54Q, W100Q
VL: B1 VL with L89Q
notes: IgG
B23: IgG 2036 (antibody, name in Kabat numbering, V domains shown)
VH: B1 VH with H52K, S54Q, W100Q
VL: B1 VL
notes: IgG
B24: IgG 1970 (antibody, name in Kabat numbering, V domains shown)
VH: B1 VH with W100H
VL: B1 VL with L89Q
notes: IgG
B25: IgG 2037 (antibody, name in Kabat numbering, V domains shown)
VH: B1 VH with H52R, S54E, W100S, D101T
VL: B1 VL
notes: IgG
B26: IgG 1969 (antibody, name in Kabat numbering, V domains shown)
VH: B1 VH with W100S, D101T
VL: B1 VL with L89Q
notes: IgG
B27: IgG 1965 (antibody, name in Kabat numbering, V domains shown)
VH: B1 VH with H52L, S54H, W100S, D101T
VL: B1 VL with L89Q
notes: IgG
B28: IgG 2038 (antibody, name in Kabat numbering, V domains shown)
VH: B1 VH with H52R, S54E, W100H
VL: B1 VL
notes: IgG
B29: IgG 1958 (antibody, name in Kabat numbering, V domains shown)
VH: B1 VH with H52R, S54E, W100H
VL: B1 VL with L89Q
notes: IgG
B30: IgG 2015 (antibody, name in Kabat numbering, V domains shown)
VH: B1 VH with H52K, S54Q, W100R
VL: B1 VL with Y91K
notes: IgG
B31: IgG 2035 (antibody, name in Kabat numbering, V domains shown)
VH: B1 VH with H52K, S54Q, W100R
VL: B1 VL
notes: IgG
B32: IgG 2017 (antibody, name in Kabat numbering, V domains shown)
VH: B1 VH with H52R, S54E, W100S, D101T
VL: B1 VL with Y91K
notes: IgG
B33: IgG 1957 (antibody, name in Kabat numbering, V domains shown)
VH: B1 VH with H52R, S54E, W100S, D101T
VL: B1 VL with L89Q
notes: IgG
B34: IgG 2021 (antibody, name in Kabat numbering, V domains shown)
VH: B1 VH with H52F, G53Q, S54E, W100S, D101T
VL: B1 VL with Y91K
notes: IgG
B35: IgG 1959 (antibody, name in Kabat numbering, V domains shown)
VH: B1 VH with H52R, S54E, W100R
VL: B1 VL with L89Q
notes: IgG
B36: IgG 2013 (antibody, name in Kabat numbering, V domains shown)
VH: B1 VH with H52K, S54Q, W100S, D101T
VL: B1 VL with Y91K
notes: IgG
B37: IgG 2032 (antibody, name in Kabat numbering, V domains shown)
VH: B1 VH with W100Q
VL: B1 VL with Y91K
notes: IgG
B38: IgG 2033 (antibody, name in Kabat numbering, V domains shown)
VH: B1 VH with H52K, S54Q, W100S, D101T
VL: B1 VL
notes: IgG
B39: IgG 1961 (antibody, name in Kabat numbering, V domains shown)
VH: B1 VH with H52F, G53Q, S54E, W100S, D101T
VL: B1 VL with L89Q
notes: IgG
B40: IgG 2023 (antibody, name in Kabat numbering, V domains shown)
VH: B1 VH with H52F, G53Q, S54E, W100R
VL: B1 VL with Y91K
notes: IgG
B41: IgG 1953 (antibody, name in Kabat numbering, V domains shown)
VH: B1 VH with H52K, S54Q, W100S, D101T
VL: B1 VL with L89Q
notes: IgG
B42: IgG 1962 (antibody, name in Kabat numbering, V domains shown)
VH: B1 VH with H52F, G53Q, S54E, W100H
VL: B1 VL with L89Q
notes: IgG

Target: T1, human TNFR2
Assay: binding to human TNFR2 CHO cells

Binding result, no binding:
B1
B2
B3
B4
B5
B6
B7
B8
B9
B10
B11
B12
B13
B14
B15
B16
B17
B18
B19
B20
B21
B22
B23
B24
B25
B26
B27
B28
B29
B30
B31
B32
B33
B34
B35
B36
B37
B38
B39
B40
B41
B42
